Seven molecules from patent publication US20090029390A1 (KOREA INSTITUTE OF SCIENCE AND TECHNOLOGY, published 2009) can be followed below.

The target in assay [1] is T1, GST-p300 (truncated p300, amino acids 1-221) (Homo sapiens (Human), UniProt Q09472 300-520).
T1 construct: Expressed in E. coli BL21 from pGEX-4T-1 and eluted as a GST fusion; GST was not removed; not shown: glutathione S-transferase (GST) tag encoded by the pGEX-4T-1 vector
The assay can be described thus: fluorescence polarization, labeled peptide titrated with GST-p300.

The target of assay [2] is T2, GST-CBP (truncated human CBP, amino acids 1-450) (human, UniProt Q92793 1-450).
T2 construct: Expressed in E. coli BL21 from pGEX-KG and eluted as a GST fusion; GST was not removed; not shown: glutathione S-transferase (GST) tag encoded by the pGEX-KG vector
The assay can be described thus: fluorescence polarization, labeled peptide titrated with GST-CBP 0-3000 nM. The method, then:
(§1) The binding affinity and features between the HIF-1α peptides and CBP or p300 proteins were analyzed by measuring the fluorescence polarization (FP) values that were changed by the formation of a protein-ligand complex through the interaction between the CBP or p300 proteins and the synthesized peptides that were manufactured by the method as described in above Example 1. The FP values were measured with a fluorescence spectrometer (Perkin-Elmer), which was set to have a slit width of 5 nm and a total integration time of 5 seconds. EBC Buffer (50 mM Tris and 120 mM NaCl; pH 8.0, 0.25% Nonidet P (NP)-40) was used for the binding reaction.
(§2) To compare interactions between the four peptides derived from different regions in HIF-1α C-TAD with CBP or p300, these fluorescein-labeled HIF-1α peptides were mixed with CBP proteins at varying concentrations from 0 to 3000 nM under the conditions of above Example 2-2, and then the FP (fluorescence polarization) values were measured (FIG. 2A).

The target in assay [3] is T2, GST-CBP (truncated human CBP, amino …). The assay can be described thus: fluorescence polarization, 100 nM labeled peptide titrated with GST-CBP. The method, then:
as §1, §2

Assay [4] addresses T1, GST-p300 (truncated p300, amino acids …). The assay can be described thus: fluorescence polarization competition against F-HIF-1α(786-826) for GST-p300.

Ends that are not written are not given here. * marks the point of attachment. FITC = O=C1OC2(c3ccc(O)cc3Oc3cc(O)ccc32)c2ccc(NC(=S)*)cc21; Ahx = NCCCCCC(=O)O

T1 sequence (Q09472 300-520): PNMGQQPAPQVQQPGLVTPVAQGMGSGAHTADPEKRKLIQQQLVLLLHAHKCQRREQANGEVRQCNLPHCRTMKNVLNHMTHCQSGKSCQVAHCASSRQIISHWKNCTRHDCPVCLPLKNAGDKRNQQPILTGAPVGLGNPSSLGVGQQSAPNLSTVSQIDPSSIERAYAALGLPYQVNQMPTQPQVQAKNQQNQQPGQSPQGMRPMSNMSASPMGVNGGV
T2 sequence (Q92793 1-450): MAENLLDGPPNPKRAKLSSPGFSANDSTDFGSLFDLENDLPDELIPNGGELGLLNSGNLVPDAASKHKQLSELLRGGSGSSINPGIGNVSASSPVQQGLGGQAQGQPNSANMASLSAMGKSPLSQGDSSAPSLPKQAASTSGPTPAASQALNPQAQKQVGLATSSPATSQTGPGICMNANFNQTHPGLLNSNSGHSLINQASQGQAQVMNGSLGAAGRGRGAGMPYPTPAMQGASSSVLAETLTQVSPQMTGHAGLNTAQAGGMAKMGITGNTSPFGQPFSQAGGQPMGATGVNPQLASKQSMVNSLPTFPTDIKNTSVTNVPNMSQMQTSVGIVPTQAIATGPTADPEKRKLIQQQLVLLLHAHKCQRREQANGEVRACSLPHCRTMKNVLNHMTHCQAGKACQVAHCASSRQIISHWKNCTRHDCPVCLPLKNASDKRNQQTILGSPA

B1: F-HIF-1α (776-826, SEQ ID NO: 3) (peptide)
peptide: {FITC-Ahx}-SDLACRLLGQSMDESGLPQLTSYDCEVNAPIQGSRNLLQGEELLRALDQVN
modifications: cysteine pairing not given here
notes: Synthetic fluorescein-labeled peptide from the C-TAD of human HIF-1α
For the molecule B1, the Kd came to 157 nM in assay [1] and 196 nM in assay [2].
For {FITC-Ahx}-SDLACRLLGQSMDESGLPQLTSYDCEVNAPIQGSRNLLQ (cysteine pairing not given here, Synthetic fluorescein-labeled peptide) [F-HIF-1α (776-814, SEQ ID NO: 5)], the binding result in assay [3] is recorded as “no binding (tested: 3000 nM)”; in assay [1], “no binding”.

B2: F-HIF-1α (786-826, SEQ ID NO: 4) (peptide)
peptide: {FITC-Ahx}-SMDESGLPQLTSYDCEVNAPIQGSRNLLQGEELLRALDQVN
notes: Synthetic fluorescein-labeled peptide; also called untreated peptide
Consider B2, for which the Kd in assay [1] is 180 nM; in assay [2], 175 nM.

B3: F-HIF-1α (786-826)[C800A] (peptide)
peptide: {FITC-Ahx}-SMDESGLPQLTSYDAEVNAPIQGSRNLLQGEELLRALDQVN
notes: Position 800 counts on full-length HIF-1α
Take B3: the binding result in assay [1] is “binds”.

B4: T796D HIF-1α (786-826) peptide (peptide)
peptide: SMDESGLPQLDSYDCEVNAPIQGSRNLLQGEELLRALDQVN
notes: Unlabeled recombinant peptide with GST removed by thrombin; Position counts on full-length HIF-1α; also called T796D mutant peptide
With B4, the binding result in assay [4] is given as “binds”.

B5: N803A HIF-1α (786-826) peptide (peptide)
peptide: SMDESGLPQLTSYDCEVAAPIQGSRNLLQGEELLRALDQVN
notes: Unlabeled recombinant peptide with GST removed by thrombin; Position counts on full-length HIF-1α; also called N803A mutant peptide
As for B5, the binding result in assay [4] is “binds”.
As to {FITC-Ahx}-DESGLPQLTSYDCEVNAPIQGSRNLLQGEELLRAL (Synthetic fluorescein-labeled peptide) [F-HIF-1α (788-822, SEQ ID NO: 6)], the binding result in assay [1] and in assay [2] was “binds” each time.
